The values that follow are results of earlier work, collected in PMC5645029 (Journal of medicinal chemistry, 2017).

One data set addresses mMC1R (Mus musculus, UniProt Q01727). The settings on record: read-out: Ki app at mMC1R; displacement of radiolabeled NDP-MSH; cited from earlier work.
For the next data set, the target named is mMC3R (Mus musculus, UniProt P33033). To be noted: read-out: Ki app at mMC3R; displacement of radiolabeled NDP-MSH; cited from earlier work.
For a further data set, the target named is mMC4R (Mus musculus, UniProt P56450). To be noted: read-out: Ki app at mMC4R; displacement of radiolabeled NDP-MSH; cited from earlier work.
mMC4R, sequence (P56450 whole entry): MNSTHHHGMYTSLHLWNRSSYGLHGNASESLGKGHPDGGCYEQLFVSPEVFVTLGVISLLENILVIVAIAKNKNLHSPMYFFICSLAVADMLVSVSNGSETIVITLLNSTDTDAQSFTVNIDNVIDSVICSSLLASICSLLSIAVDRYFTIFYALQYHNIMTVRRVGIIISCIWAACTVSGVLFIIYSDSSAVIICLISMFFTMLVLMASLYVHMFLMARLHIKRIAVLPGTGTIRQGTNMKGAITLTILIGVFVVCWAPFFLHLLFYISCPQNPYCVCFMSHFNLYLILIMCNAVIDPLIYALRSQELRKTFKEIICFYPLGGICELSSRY

mMC3R, sequence (P33033 whole entry): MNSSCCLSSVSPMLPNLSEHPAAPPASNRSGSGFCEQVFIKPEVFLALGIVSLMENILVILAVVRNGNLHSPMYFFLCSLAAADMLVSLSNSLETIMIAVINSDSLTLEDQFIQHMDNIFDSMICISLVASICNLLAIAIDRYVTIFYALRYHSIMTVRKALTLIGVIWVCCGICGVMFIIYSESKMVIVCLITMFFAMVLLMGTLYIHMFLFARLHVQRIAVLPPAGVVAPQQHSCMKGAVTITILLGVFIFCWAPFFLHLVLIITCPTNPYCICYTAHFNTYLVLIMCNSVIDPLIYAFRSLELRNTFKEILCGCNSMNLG
mMC1R, sequence (Q01727 whole entry): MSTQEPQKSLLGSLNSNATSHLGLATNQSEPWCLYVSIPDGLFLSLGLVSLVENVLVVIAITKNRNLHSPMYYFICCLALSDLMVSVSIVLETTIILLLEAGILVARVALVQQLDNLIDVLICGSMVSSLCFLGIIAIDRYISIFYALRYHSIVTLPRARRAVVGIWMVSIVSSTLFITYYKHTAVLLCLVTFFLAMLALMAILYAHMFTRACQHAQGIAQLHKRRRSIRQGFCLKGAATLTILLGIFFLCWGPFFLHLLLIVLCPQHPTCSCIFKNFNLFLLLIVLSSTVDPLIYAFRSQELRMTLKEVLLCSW

B1: mASP: recombinant mouse agouti-signaling protein (protein, UniProt Q03288 23-131, looked up)
Agouti-signaling protein: HLALEETLGDDRSLRSNSSMNSLDFSSVSIVALNKKSKKISRKEAEKRKRSSKKKASMKKVARPPPPSPCVATRDSCKPPAPACCDPCASCQCRFFGSACTCRVLNPNC
Regarding B1, the Ki is 2.6 nM in the data set with mMC1R, 190 nM with mMC3R and 54 nM in the data set with mMC4R.
